{"source": "patent US20170065662A1", "target": "recombinant His-p27 (full-length p27Kip1, C-terminal histidine tag) (human) (UniProt P46527)", "sequence (P46527 whole entry, the tested form may be a part)": "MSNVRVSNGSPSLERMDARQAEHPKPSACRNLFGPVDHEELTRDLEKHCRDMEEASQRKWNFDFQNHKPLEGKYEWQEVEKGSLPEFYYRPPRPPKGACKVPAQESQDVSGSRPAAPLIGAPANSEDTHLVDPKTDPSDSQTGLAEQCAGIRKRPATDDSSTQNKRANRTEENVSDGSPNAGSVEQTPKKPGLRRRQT", "experiment": "phage-ELISA, SH3-displaying phage on recombinant His-p27 (multivalent phage, which would enhance binding)", "data": [{"substance": "SH3 domain of Brk displayed on phage (from UniProt Q13882 12-70)", "values": [{"measurement": "Kd", "value": 250, "unit": "nM"}]}]}
